These sequences were tested on Escherichia coli TOP10 (assay: shrunken log2 fold change of peptide-encoding DNA abundance (4.5 h post-induction vs induction); higher = less antimicrobial activity (less host growth inhibition)). Settings: time post-induction: 4.5 h; library: site-saturation at positions 5, 18, 19, 20.
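Note: peptides expressed intracellularly from a pBAD plasmid library in pooled LB shake-flask culture, induced with 0.3% L-arabinose, DNA abundance read by NGS, three biological replicates, DESeq2 with apeglm shrinkage.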

| Sequence | shrunken log2 fold change |
| --- | --- |
| RRIRKRPPRLPRPRPRPLWMPRP | -0.0285 |
| RRIRSRPPRLPRPRPRPFLQPRP | -0.267 |
| RRIRRRPPRLPRPRPRPNWLPRP | 0.121 |
| RRIRSRPPRLPRPRPRPACGPRP | 0.436 |
| RRIRHRPPRLPRPRPRPPGCPRP | 0.184 |
| RRIRFRPPRLPRPRPRPQIDPRP | 0.0185 |
| RRIRWRPPRLPRPRPRPLVYPRP | 0.114 |
| RRIRTRPPRLPRPRPRPMWPPRP | -0.0463 |
| RRIRIRPPRLPRPRPRPDKEPRP | -0.0239 |
| RRIRERPPRLPRPRPRPKRRPRP | 0.143 |
| RRIRMRPPRLPRPRPRPQRLPRP | 0.294 |
| RRIRVRPPRLPRPRPRPIKEPRP | -0.327 |
| RRIRGRPPRLPRPRPRPWKVPRP | -0.00197 |
| RRIRKRPPRLPRPRPRPWPHPRP | 0.298 |
| RRIRHRPPRLPRPRPRPERSPRP | 0.0418 |
| RRIRPRPPRLPRPRPRPRCNPRP | -0.0415 |
| RRIRNRPPRLPRPRPRPNEIPRP | 0.145 |
| RRIRPRPPRLPRPRPRPSCLPRP | -0.317 |
| RRIRWRPPRLPRPRPRPKKWPRP | 0.254 |
| RRIRIRPPRLPRPRPRPHETPRP | 0.0188 |
| RRIRMRPPRLPRPRPRPYEWPRP | -0.0304 |
| RRIRGRPPRLPRPRPRPSGDPRP | 0.952 |
| RRIRLRPPRLPRPRPRPLELPRP | -0.0406 |
| RRIRYRPPRLPRPRPRPPSYPRP | -0.156 |
| RRIRVRPPRLPRPRPRPAAIPRP | -0.0826 |

| Sequence | shrunken log2 fold change |
| --- | --- |
| RRIRARPPRLPRPRPRPRNNPRP | -0.101 |
| RRIRERPPRLPRPRPRPDICPRP | -0.553 |
| RRIRFRPPRLPRPRPRPDTLPRP | -0.0946 |
| RRIRTRPPRLPRPRPRPYVTPRP | -0.203 |
| RRIRDRPPRLPRPRPRPALKPRP | 0.407 |
| RRIRQRPPRLPRPRPRPRHYPRP | -0.191 |
| RRIRCRPPRLPRPRPRPEPAPRP | 0.971 |
| RRIRQRPPRLPRPRPRPMPEPRP | -0.237 |
| RRIRPRPPRLPRPRPRPIITPRP | -0.587 |
| RRIRTRPPRLPRPRPRPYCVPRP | -0.142 |
| RRIRGRPPRLPRPRPRPYSWPRP | 0.187 |
| RRIRCRPPRLPRPRPRPRTKPRP | 0.246 |
| RRIRFRPPRLPRPRPRPWPCPRP | -0.229 |
| RRIRGRPPRLPRPRPRPVEGPRP | 0.305 |
| RRIRHRPPRLPRPRPRPNESPRP | -0.506 |
| RRIRGRPPRLPRPRPRPCDCPRP | -0.0193 |
| RRIRRRPPRLPRPRPRPHIQPRP | -0.114 |
| RRIRKRPPRLPRPRPRPISTPRP | -0.218 |
| RRIRDRPPRLPRPRPRPMEAPRP | -0.0266 |
| RRIRFRPPRLPRPRPRPMMAPRP | 0.189 |
| RRIRWRPPRLPRPRPRPHFFPRP | -0.0221 |
| RRIRMRPPRLPRPRPRPRSSPRP | 0.923 |
| RRIRTRPPRLPRPRPRPEQGPRP | 0.196 |
| RRIRTRPPRLPRPRPRPLPIPRP | -0.0647 |
| RRIRDRPPRLPRPRPRPELIPRP | 0.0219 |

| Sequence | shrunken log2 fold change |
| --- | --- |
| RRIRIRPPRLPRPRPRPIPRPRP | 0.0123 |
| RRIRGRPPRLPRPRPRPMIWPRP | 0.589 |
| RRIRHRPPRLPRPRPRPMDCPRP | -0.0499 |
| RRIRIRPPRLPRPRPRPNYQPRP | -0.43 |
| RRIRPRPPRLPRPRPRPSHQPRP | 0.189 |
| RRIRLRPPRLPRPRPRPFLPPRP | -0.171 |
| RRIRLRPPRLPRPRPRPTNPPRP | -0.348 |
| RRIRIRPPRLPRPRPRPNGMPRP | -0.0985 |
| RRIRVRPPRLPRPRPRPRMSPRP | -0.079 |
| RRIRFRPPRLPRPRPRPYAKPRP | -0.552 |
| RRIRMRPPRLPRPRPRPQVRPRP | -0.0122 |
| RRIRHRPPRLPRPRPRPVAHPRP | -0.00816 |
| RRIRQRPPRLPRPRPRPFGLPRP | -0.131 |
| RRIRERPPRLPRPRPRPPQVPRP | 0.207 |
| RRIRLRPPRLPRPRPRPCNPPRP | -0.000687 |
| RRIRCRPPRLPRPRPRPMFSPRP | -0.48 |
| RRIRKRPPRLPRPRPRPCRVPRP | 0.0931 |
| RRIRFRPPRLPRPRPRPQAAPRP | 1.04 |
| RRIRVRPPRLPRPRPRPDANPRP | 0.167 |
| RRIRFRPPRLPRPRPRPSERPRP | -0.0251 |
| RRIRVRPPRLPRPRPRPIVVPRP | -0.129 |
| RRIRTRPPRLPRPRPRPRESPRP | 0.207 |
| RRIRDRPPRLPRPRPRPVYCPRP | -0.115 |
| RRIRYRPPRLPRPRPRPCVIPRP | 0.0735 |
| RRIRLRPPRLPRPRPRPASCPRP | 0.117 |

| Sequence | shrunken log2 fold change |
| --- | --- |
| RRIRYRPPRLPRPRPRPNSPPRP | -0.21 |
| RRIRTRPPRLPRPRPRPYHIPRP | -1.06 |
| RRIRRRPPRLPRPRPRPAYAPRP | -0.0409 |
| RRIRPRPPRLPRPRPRPYLVPRP | -0.203 |
| RRIRVRPPRLPRPRPRPNTNPRP | -0.421 |
| RRIRERPPRLPRPRPRPFQIPRP | -0.145 |
| RRIRIRPPRLPRPRPRPQSCPRP | -0.0388 |
| RRIRWRPPRLPRPRPRPKGCPRP | -0.00617 |
| RRIRHRPPRLPRPRPRPYAQPRP | -0.279 |
| RRIRDRPPRLPRPRPRPYGRPRP | -0.0901 |
| RRIRKRPPRLPRPRPRPGQSPRP | 0.306 |
| RRIRVRPPRLPRPRPRPHAHPRP | -0.256 |
| RRIRERPPRLPRPRPRPHQGPRP | 0.0963 |
| RRIRWRPPRLPRPRPRPYRTPRP | 0.00941 |
| RRIRNRPPRLPRPRPRPIREPRP | -0.0204 |
| RRIRVRPPRLPRPRPRPQMWPRP | 0.0478 |
| RRIRTRPPRLPRPRPRPDLSPRP | 0.057 |
| RRIRVRPPRLPRPRPRPMYIPRP | -0.0844 |
| RRIRLRPPRLPRPRPRPAWPPRP | 0.42 |
| RRIRERPPRLPRPRPRPAPTPRP | 0.199 |
| RRIRFRPPRLPRPRPRPCNFPRP | -0.183 |
| RRIRQRPPRLPRPRPRPTEMPRP | -0.149 |
| RRIRYRPPRLPRPRPRPNAIPRP | -0.0737 |
| RRIRLRPPRLPRPRPRPPFEPRP | 0.182 |
| RRIRNRPPRLPRPRPRPWFGPRP | -0.208 |

| Sequence | shrunken log2 fold change |
| --- | --- |
| RRIRRRPPRLPRPRPRPYRMPRP | -0.292 |
| RRIRARPPRLPRPRPRPRFPPRP | 0.421 |
| RRIRSRPPRLPRPRPRPRDDPRP | 0.0905 |
| RRIRTRPPRLPRPRPRPWRDPRP | 0.00299 |
| RRIRERPPRLPRPRPRPCEDPRP | 0.0101 |
| RRIRGRPPRLPRPRPRPRLNPRP | 0.57 |
| RRIRFRPPRLPRPRPRPRESPRP | 0.45 |
| RRIRDRPPRLPRPRPRPFWCPRP | 0.136 |
| RRIRNRPPRLPRPRPRPSQMPRP | -0.232 |
| RRIRLRPPRLPRPRPRPDQDPRP | -0.218 |
| RRIRTRPPRLPRPRPRPFTHPRP | -0.174 |
| RRIRPRPPRLPRPRPRPWKQPRP | 0.0524 |
| RRIRRRPPRLPRPRPRPLMTPRP | 0.351 |
| RRIRTRPPRLPRPRPRPMNYPRP | -0.949 |
| RRIRERPPRLPRPRPRPWDVPRP | 0.0649 |
| RRIRLRPPRLPRPRPRPMSRPRP | -0.00152 |
| RRIRSRPPRLPRPRPRPALQPRP | 0.441 |
| RRIRTRPPRLPRPRPRPCNEPRP | -0.173 |
| RRIRARPPRLPRPRPRPKLRPRP | 0.178 |
| RRIRKRPPRLPRPRPRPVAKPRP | 3.34 |
| RRIRFRPPRLPRPRPRPSTIPRP | -0.45 |
| RRIRHRPPRLPRPRPRPCAVPRP | -0.0171 |
| RRIRQRPPRLPRPRPRPTMEPRP | -0.0535 |
| RRIRSRPPRLPRPRPRPYPFPRP | -0.716 |
| RRIRGRPPRLPRPRPRPHHNPRP | -0.372 |

| Sequence | shrunken log2 fold change |
| --- | --- |
| RRIRCRPPRLPRPRPRPTMFPRP | -0.2 |
| RRIRHRPPRLPRPRPRPLWYPRP | -0.923 |
| RRIRKRPPRLPRPRPRPNLAPRP | 0.25 |
| RRIRWRPPRLPRPRPRPGDSPRP | -0.163 |
| RRIRRRPPRLPRPRPRPGRNPRP | -0.000492 |
| RRIRWRPPRLPRPRPRPMQRPRP | 0.667 |
| RRIRARPPRLPRPRPRPLKGPRP | 0.052 |
| RRIRMRPPRLPRPRPRPSSDPRP | 0.111 |
| RRIRCRPPRLPRPRPRPTYMPRP | -0.432 |
| RRIRQRPPRLPRPRPRPRWLPRP | 0.453 |
| RRIRTRPPRLPRPRPRPLWPPRP | 0.216 |
| RRIRGRPPRLPRPRPRPASDPRP | 0.987 |
| RRIRFRPPRLPRPRPRPGAIPRP | -0.244 |
| RRIRCRPPRLPRPRPRPIRFPRP | -0.27 |
| RRIRTRPPRLPRPRPRPSEHPRP | -0.383 |
| RRIRNRPPRLPRPRPRPLVTPRP | 0.0322 |
| RRIRHRPPRLPRPRPRPYRRPRP | -0.142 |
| RRIRHRPPRLPRPRPRPVMWPRP | 0.21 |
| RRIRTRPPRLPRPRPRPSCQPRP | -0.21 |
| RRIRLRPPRLPRPRPRPPFGPRP | 0.0044 |
| RRIRYRPPRLPRPRPRPQKEPRP | -0.245 |
| RRIRFRPPRLPRPRPRPAPCPRP | 0.294 |
| RRIRCRPPRLPRPRPRPNMEPRP | -0.237 |
| RRIRCRPPRLPRPRPRPDTSPRP | -0.365 |
| RRIRQRPPRLPRPRPRPPNYPRP | 0.195 |
